{"source": "paper PMC10517005", "about": "“A conserved membrane protein negatively regulates Mce1 complexes in mycobacteria” (Nature Communications, 2023)", "proteins": {"B1": {"name": "YrbE1A/B-MceG (core ABC transporter of the Mce1 system) (Mycolicibacterium smegmatis MC2 155) (protein)", "chain": "MGVQIDVTGLSKSFGSSKIWEDVTMSIPAGEVSVLLGPSGTGKSVFLKSLIGLLRPERGSIVIDGTDILQCSAKELYEIRTLFGVLFQDGALFGSMNIYDNTAFPLREHTKKSESEIRKIVMEKLDLVGMPNDGHKFPGEISGGMRKRAGLARALVLDPEIILCDEPDSGLDPVRTAYLSQLLIDINAQIDATVLIVTHNINIARTVPDNMGMLFRKQLVMFGPREVLLTSEEPVVKQFLNGRRIGPIGMSEEKDEATAAAEQALVDAGQHDGGVEEIEGVPPQLQATPGMPERKAVARRKARVREILHTLPPAAQAAILEELDRDQPQLSAPTTQTAATAPVENYDDSPTGVIEVPKQA", "notes": "YrbE1A, His6-YrbE1B and MceG co-expressed in E. coli BL21(λDE3); DDM-solubilised, TALON and SEC purified; with ABC transporter permease YrbE1A (Mce1 transmembrane domain protein); ABC transporter permease YrbE1B (Mce1 transmembrane domain protein)"}}, "substrate": "Nc1ncnc2c1ncn2[C@@H]1O[C@H](COP(=O)(O)OP(=O)(O)OP(=O)(O)O)[C@@H](O)[C@H]1O", "experiment": "NADH-coupled ATPase assay (pyruvate kinase / lactate dehydrogenase), fit with Hill coefficient", "format": "biochemical, Mycolicibacterium smegmatis", "settings": "0.1 μM complex in 0.05% DDM micelles, 20 mM Tris-HCl pH 8.0, 150 mM NaCl, 5 mM MgCl2, 10% glycerol, 37 °C, Michaelis-Menten with Hill term (n = 1.28 ± 0.57)"}
{"protein": "B1", "values": [{"measurement": "Km", "result": "284 ± 311", "unit": "µM"}, {"measurement": "kcat", "result": "0.184 ± 0.125", "unit": "μM ATP s^−1/μM complex"}]}
